Measured values taken from article doi:10.1101/2025.03.17.643790.

Biological target: fibrillar amyloid-beta (UniProt P05067)
Assay: SPR

UniProt P05067, sequence (P05067 672-713): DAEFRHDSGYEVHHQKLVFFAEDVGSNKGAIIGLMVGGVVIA

Kd: 9 nM
Substance: Galectin-3 (from UniProt P17931 1-250) (natural protein)
